Laboratory results from publication PMC10300302 (Cell Insight, 2023).

Molecular target: T1, GST-Sirt1 (human, UniProt Q96EB6 1-747)
T1 sequence (looked up): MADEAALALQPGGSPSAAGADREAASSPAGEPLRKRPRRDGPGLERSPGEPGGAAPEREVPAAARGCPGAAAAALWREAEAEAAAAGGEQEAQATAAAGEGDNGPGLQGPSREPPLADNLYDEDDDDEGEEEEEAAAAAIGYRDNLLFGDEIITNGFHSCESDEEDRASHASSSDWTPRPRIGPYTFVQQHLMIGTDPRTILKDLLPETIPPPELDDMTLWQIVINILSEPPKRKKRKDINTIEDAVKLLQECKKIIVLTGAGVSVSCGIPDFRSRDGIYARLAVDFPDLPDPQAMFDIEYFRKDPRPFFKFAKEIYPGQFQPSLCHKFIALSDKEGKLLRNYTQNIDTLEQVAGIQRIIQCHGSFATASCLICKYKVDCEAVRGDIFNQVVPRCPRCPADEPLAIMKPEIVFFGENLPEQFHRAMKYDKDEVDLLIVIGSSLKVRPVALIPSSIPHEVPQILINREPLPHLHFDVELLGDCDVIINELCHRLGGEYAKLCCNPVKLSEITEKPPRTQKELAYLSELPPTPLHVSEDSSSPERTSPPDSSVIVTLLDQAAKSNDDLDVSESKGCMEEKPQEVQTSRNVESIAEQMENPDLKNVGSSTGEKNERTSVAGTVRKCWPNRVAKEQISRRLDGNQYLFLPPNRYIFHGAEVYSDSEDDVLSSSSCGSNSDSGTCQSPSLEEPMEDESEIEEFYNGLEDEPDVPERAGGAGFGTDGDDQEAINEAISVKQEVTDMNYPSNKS
Experiment: pull-down

B1: MBP-CHCHD2-His (CHCHD2-isoform2) (natural protein, human, UniProt Q9Y6H1 1-151, looked up)
chain: MPRGSRSRTSRMAPPASRAPQMRAAPRPAPVAQPPAAAPPSAVGSSAAAPRQPGLMAQMATTAAGVAVGSAVGHTLGHAITGGFSGGSNAEPARPDITYQEPQGTQPAQQQQPCLYEIKQFLECAQNQGDIKLCEGFNEVLKQCRLANGLA
binding result: binds
